Ends that are not written are not given here.
B1: Phage-displayed 12-mer peptide HPKQSLHFPDLS (Group B; Phage ID 6) (peptide)
peptide: HPKQSLHFPDLS
modifications: not fully specified
notes: not shown: protein III of bacteriophage M13 (Ph.D-12 library, New England Biolabs); any li
B2: Phage-displayed 12-mer peptide HPYDSLHFPRMS (Group B; Phage ID 4, 6-1) (peptide)
peptide: HPYDSLHFPRMS
modifications: not fully specified
notes: also called Phage ID 6-1; not shown: protein III of bacteriophage M13 (Ph.D-12 library, New England Biolabs); any li
B3: Phage-displayed 12-mer peptide HETAVRQTSPPM (Group A; Phage ID 9, 20, 22) (peptide)
peptide: HETAVRQTSPPM
modifications: not fully specified
notes: no synthetic peptide was tested; also called Phage ID 20; Phage ID 22; not shown: protein III of bacteriophage M13 (Ph.D-12 library, New England Biolabs); any li
B4: Phage-displayed 12-mer peptide HETACRQTSPPM (Group A; Phage ID 11) (peptide)
peptide: HETACRQTSPPM
modifications: not fully specified
notes: as for B1

Target: T1, human GABAC receptor rho1 subunit expressed on stably transfected neuroblastoma cells (human, UniProt P24046 22-479)
T1 construct: whole, on cells; the pentameric state on these cells was not measured; also called GABAC human ρ1; GABAC-transfected neuroblastoma cells
Assay: phage display panning (Ph.D-12 library): subtraction on non-transfected neuroblastoma cells, then three rounds on GABAC-transfected neuroblastoma cells; clones sequenced
Source text: Screening of phage display peptides with GABAC-expressing cells MAY employ phage display to identify 12-mer peptide sequences that can serve as an NNP anchoring element. GABAC-transfected neuroblastoma cells have yielded sequences of peptides that preferentially bind to GABAC-expressing cells. For phage selection, we used a screening method similar to that previously used to identify phages that bind to ErbB receptors (Stortelers et al., 2003). Briefly, 2×10¹⁰ phages (Ph.D-12 library from New England Biolabs, MA) were incubated with control, non-transfected neuroblastoma cells in binding buffer (PBS containing 0.2% BSA, 0.05% Tween 20) for 2 hr. Non-bound phages were collected and then incubated with GABAC-transfected neuroblastoma cells for 2 hr. After rinsing several times with washing buffer (0.05% Tween 20 in PBS), bound phages were eluted using an acidic glycine buffer (50 mM glycine, 150 mM NaCl, pH 2.7) and neutralized with 1 M Tris, pH 8. After phage titration of the eluate, we performed a second and then a third round of bio-panning using the GABAC-transfected neuroblastoma cells. After the third round of panning, DNA isolated from individual phage plaques was sequenced. […] The 7 illustrated sequences represent individual phage clones from a total of 36 sequenced clones.

T1 sequence (P24046 22-479): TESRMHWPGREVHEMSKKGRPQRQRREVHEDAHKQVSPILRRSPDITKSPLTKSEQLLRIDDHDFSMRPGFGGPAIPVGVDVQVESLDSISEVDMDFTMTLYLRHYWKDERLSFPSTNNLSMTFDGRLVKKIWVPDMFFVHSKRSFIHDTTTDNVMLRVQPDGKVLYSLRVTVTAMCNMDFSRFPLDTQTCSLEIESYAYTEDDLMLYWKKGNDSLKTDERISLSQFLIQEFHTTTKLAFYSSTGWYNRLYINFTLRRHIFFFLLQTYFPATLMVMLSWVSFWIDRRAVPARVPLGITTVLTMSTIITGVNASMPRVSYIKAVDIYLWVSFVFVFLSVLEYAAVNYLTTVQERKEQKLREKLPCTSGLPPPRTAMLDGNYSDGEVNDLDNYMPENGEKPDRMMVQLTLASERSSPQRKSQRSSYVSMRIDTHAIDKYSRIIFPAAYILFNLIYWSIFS

Binder	binding result
B1	binds
B2	binds
B3	binds
B4	binds

Source: patent US20080293915A1 (published 2008)
